Reference: paper PMC9942873 (Immunity, 2023)
Substitutions are numbered along the chain they refer to.

B1: RUPA-46 (antibody, V domains shown)
VH: QVQLVQSGGGLVKPGGSLKLSCAASGFAFSDYYMHWIRQSPGKGLEWISYVSNSGNTIYYADSVKGRFTISRDNTKNSLFLQMNSLSADDTAVYYCARDRKGRNSETYYGALDVWGQGTTVTVST
VL: DIVMTQSLDSLAVSLGERATINCKSSQSVFSTYNNKNYLAWYQQKLGQPPKLLIYWASTRESGVPDRFSGSGSGTDFTLTISSLQAEDVAVYYCQQYYTTPTWTFGQGTKVEIK
notes: human IgG1; source: recombinant human IgG1, 293T (Protein A purified) or GenScript
B2: RUPA-71 (antibody, V domains shown)
VH: EEQLVESGGGLVKPGRSLRLSCSASGFTLGDYAVTWFRQASGKEPEWVGVIRTKDEGGTTEYAASVKGRFSILRDDSKSIAHLQMNSLKIEDTAVYYCTRNGLRWYDSSGPRGWAFDIWGPGTLVVVSS
VL: EIVMTQSPATVSVSPGERATLSCRTSQSVSNKLAWYQQKPGQAPRLLIYGASTRATGIPARFSGSGSGTQFTLTISSLQSEDFAVYYCQQYNNWPPWTFGRGTKVEIK
notes: as for B1
B3: RUPA-78 (antibody, V domains shown)
VH: EGQLLESGGDLVQPGGSLRLSCAASRFTFNTFAMTWVRQAPGKGLEWVSTISRSGSSTFYADSVKGRFTISRDNSKDTLYLQMNSLRAEDTALYSCAKFRTPRFSSSSGDALDLWGQGTMVTVSS
VL: EIVLTQSPGTLSLSPGERATLSCRASQSVSSSYFAWYQRRPGQAPRLVIDGASSRATGIPDRFSGSGSGTDFTLTISRLEPEDFAVYYCQQYGVSPGTFGQGTKLEIK
notes: as for B1
B4: RUPA-30 (antibody, V domains shown)
VH: QVQLVQSGAEVKKPGASVKVSCKASGYTFTTYFLHWVRQAPGQGLEWMGVIHPSGGSTTYAENFEGRVTMSRDTSTSTVYMELSSVRYEDTAVYYCARAGEYCRGIRCYIDGLDIWGQGTTVTVSS
VL: DIQMTQSPSSLSASVGDRVTITCRASQGIRNDLGWYQQKPGKAPKRLIYAASSLQSGVPSRFSGSGSGTEFTLTISSLQPEDFATYYCLQHNDSPWTFGQGTKVEIK
notes: as for B1
B5: RUPA-37 (antibody, V domains shown)
VH: QEQLVQSGAELRTPGATVKVSCKAPAYTFTTYFMHWVRQAPGRGFEWLGRINPSRGSTTYADKFQGRVTMTSDTSTTTVFMEVTNLRSEDTAVYYCARAGEYCRGIRCYVDGIDMWGQGTMITVSS
VL: B4 VL with V15I, K45Q, T85S, Y87F, D93S
notes: as for B1
B6: RUPA-77 (antibody, V domains shown)
VH: QITLKESGPTLVKPTQTLTLTCSFSGFSLTTAGVAVAWIRQPPGQALEWLGIIYWNDDKRYNPSFQNRLTIAKDTSKNQVVLTMTNMDPVDTGTYYCAHRILAAYNYFDPWGQGTLVTVSS
VL: DIQMTQSPPSLSASVGDRVTITCRASQPINNFLNWYQQRPGKAPKLLIYAASRLQSGVPSRFSGSVSGTDFTLTISSLQQEDFAIYYCQQSYTSPLTFGGGTKVEIK
notes: as for B1
B7: RUPA-66 (antibody, V domains shown)
VH: QVQVQQWGAGLLKPSETLSLTCAAFGGSFSDYYWSWIRQPPGKGLEWIGEINHSGTTNYNPSLKSRVIISVDTSKNQFSLKLSSVTAADTALYYCARRSSGWYRRSRYTGWFDPWGQGTLVTVSS
VL: EILMTQSPATLSVSPGERATLSCRASQTITSNLAWYQQKPGQAPRLLMYGASTRATGIPARFSGSGSGTEFTLTISSLQSEDFGIYYCQQYNNWPGLSFGGGTKVEIK
notes: as for B1
B8: RUPA-36 (antibody, V domains shown)
VH: QVQLQQWGAGLLKPSETLSLTCAVEGDSLGDYYWSWIRQPPGKGLEWIGDINHSGTTNYIPSLKSRVTISVDPSRKHFSLKLNFVTAADTATYFCARRASGWYRQSRYTGWFDPWGQGTLVTVSS
VL: B7 VL with L3V, Q27H, T28S, T30N, L33V, M48I, S80T, G84A, I85V
notes: as for B1
B9: RUPA-26 (antibody, V domains shown)
VH: QVQLQQWGAGLLKPSETLSLTCLVNGGSFSDYYWSWIRQPPGRGLEWIGDVNHSGTTNHRPSLQSRVTLSLDMSKNQFSLKLTSVTAADTAVYFCARRSSGYYRGSRYTGWFDPWGQGTLVTVSS
VL: B7 VL with L3V, M4L, S31R, M48I, T56P, G57D, G84A, I85L, S98T
notes: as for B1
B10: RUPA-75 (antibody, V domains shown)
VH: QVQLQQWGAGLLKPSETLSLTCGVNGGSFTDYYWTWIRQPPGKGLEWIGDINHSGITNYNPSLKSRLTLSVDTSKSHFSLRLNSVTAADTALYFCARRSSGYYRGSRYTGWLDPWGQGTLVTVSS
VL: B7 VL with L3V, R24W, T28S, M48I, E70G, S77T, L78V, G84A, I85V, S98T
notes: as for B1
B11: RUPA-45 (antibody, V domains shown)
VH: B9 VH with K81R, R107H
VL: B7 VL with L3V, M4L, S31R, M48I, T56P, G57D, G84A, I85L, S98T
notes: as for B1
B12: RUPA-58 (antibody, V domains shown)
VH: QVQLVQSGPEAKKPGASVKVSCQASGYPFSGYYMHWLRQAPGQGLEWMGWMNPNSGGTKYAQRFQGRVTMTRDTSISTAHMELRGLRSDDTAVYYCARDYCTGSSCYRTDYDYWGQGTLVTVSS
VL: DIQMTQSPSSLSASVGDRVTITCRASQIISTYLNWYQHKPGKAPKLLIKSASTLQSGVPSRFSGSGSGTDFTLTITSLQPEDFATFYCQQSYRDPITFGQGTRLEIK
notes: as for B1
B13: RUPA-88 (antibody, V domains shown)
VH: QVHLVQSGAEVKKPGASVKVSCKASGYNFLYHDITWVRQATGQGLEWLGWMNPNTGDTGYAQNFQGRVTMTRDMSRSTAYLELGSLRSEDTAVYYCARGVGSYHGSGGWLDPWGPGTLVIVSS
VL: QSVLTQPPSVSETPGQRVTISCSGSSSNIGLNTVNWYQQLPGTAPKLLIHNDNQRPSGVPDRFSGSKSGTSASLAISGLHSEDEADYYCATWDDSLKRRVFGGGTKLTVL
notes: as for B1
B14: RUPA-87 (antibody, V domains shown)
VH: QVQVVQSGAEVRKPGASVKVSCKTSGYTFIYYYIHWVRQAPGQGLEWLGWINPNSGGTKYAQQFQGRVTVTRDTSVSTAYMELNGLTSDDTAVYYCARVVAAEGYFDYWGQGTLLTVSS
VL: DIQMTQSPSSVSASVGDRVTITCRASQGISGWLAWYQQKPGKAPKLLIYAASTLQSGVPSRFSGSGSGTDFTLTISSLQPDDFATYFCQQANSFPLTFGGGTKISLK
notes: as for B1

molecular target: T1, recombinant full-length Pfs48/45 (Plasmodium falciparum 3D7, UniProt Q8I6T1); assay: ELISA; settings: both partners purified
T1 sequence (Q8I6T1 28-428): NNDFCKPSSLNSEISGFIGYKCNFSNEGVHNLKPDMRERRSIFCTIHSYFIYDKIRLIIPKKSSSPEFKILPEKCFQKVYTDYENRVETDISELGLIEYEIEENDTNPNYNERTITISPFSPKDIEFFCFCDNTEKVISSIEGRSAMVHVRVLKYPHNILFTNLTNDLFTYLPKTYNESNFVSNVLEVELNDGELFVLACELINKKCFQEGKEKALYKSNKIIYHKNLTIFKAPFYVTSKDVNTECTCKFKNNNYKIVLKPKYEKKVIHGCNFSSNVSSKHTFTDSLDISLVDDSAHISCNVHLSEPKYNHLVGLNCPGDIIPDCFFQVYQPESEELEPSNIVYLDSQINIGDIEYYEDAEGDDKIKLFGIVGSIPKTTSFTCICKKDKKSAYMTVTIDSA

| Binder | binding result |
| --- | --- |
| B1 | binds |
| B2 | binds |
| B3 | binds |
| B4 | binds |
| B5 | binds |
| B6 | binds |
| B7 | binds |
| B8 | binds |
| B9 | binds |
| B10 | binds |
| B11 | binds |
| B12 | binds |

molecular target: T2, Pfs48/45 D1-2 (Plasmodium falciparum 3D7, UniProt Q8I6T1); assay: ELISA; settings: both partners purified
T2 sequence (Q8I6T1 28-289): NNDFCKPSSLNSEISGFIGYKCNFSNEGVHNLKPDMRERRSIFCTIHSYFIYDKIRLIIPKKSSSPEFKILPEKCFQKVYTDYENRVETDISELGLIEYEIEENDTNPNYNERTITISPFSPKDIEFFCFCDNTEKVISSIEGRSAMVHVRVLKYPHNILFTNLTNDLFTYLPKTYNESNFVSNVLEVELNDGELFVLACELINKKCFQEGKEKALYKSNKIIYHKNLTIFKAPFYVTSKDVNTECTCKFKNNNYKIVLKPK

| Binder | binding result |
| --- | --- |
| B1 | binds |
| B2 | binds |
| B3 | binds |
| B4 | binds |
| B5 | binds |
| B6 | binds |
| B7 | binds |
| B8 | binds |
| B9 | binds |
| B10 | binds |
| B11 | binds |
| B12 | binds |

molecular target: T1, recombinant full-length Pfs48/45; assay: ELISA; settings: both partners purified; remark: another data set of the same source

| Binder | binding result |
| --- | --- |
| B13 | binds |
| B14 | binds |

molecular target: T2, Pfs48/45 D1-2; assay: ELISA; settings: both partners purified; remark: another data set of the same source

| Binder | binding result |
| --- | --- |
| B13 | binds |
| B14 | binds |

molecular target: Pfs48/45 D2-3 (Plasmodium falciparum 3D7, UniProt Q8I6T1); assay: ELISA; settings: both partners purified
Sequence (Q8I6T1 184-428): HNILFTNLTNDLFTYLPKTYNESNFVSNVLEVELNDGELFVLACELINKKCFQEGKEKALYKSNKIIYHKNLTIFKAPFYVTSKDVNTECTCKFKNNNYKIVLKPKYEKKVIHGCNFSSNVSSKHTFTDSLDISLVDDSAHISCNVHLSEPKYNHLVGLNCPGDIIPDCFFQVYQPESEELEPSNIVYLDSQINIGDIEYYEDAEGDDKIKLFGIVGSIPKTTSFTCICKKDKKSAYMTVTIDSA

| Binder | binding result |
| --- | --- |
| B13 | binds |
| B14 | binds |
